Measured values reported in the supplement of paper PMC10567573.
± gives the standard deviation.

Assay: protein stability index of a GFP-peptide fusion (GPS, HEK-293T) (PSI 1-6); higher = more stable
Settings: c terminus: a fixed tail appended
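Note: 24-mer peptide tiles fused after GFP, lentivirally expressed, FACS-sorted into six equal bins by GFP/DsRed ratio, decoded by Illumina sequencing, PSI is the read-weighted mean bin number.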

Sequence	protein stability index (treatment: DMSO)	protein stability index (treatment: MLN4924 1 uM, 8 h)
QPGTNCALAIKVNLCGHWYYSKAC [ADAMTSL2]	2.7 ± 0.72	2.75 ± 0.45
KHTVKEHECKLTQEILELIDREVD [IQUB]	4.06 ± 0.23	4.24 ± 0.22
TQTTNDGVCQSMCHDKYTKIFNDF [ZMYND11]	3.05 ± 0.2	3.27 ± 0.12
LWQFLLELLTDKSCQSFISWTGDG [ETS1]	2.96 ± 0.47	3.13 ± 0.46
VLPCIQQIQRISLNTLTLNVKSEK [FLOT1]	2.84 ± 0.14	2.98 ± 0.24
PAFTVWCGSFQVTTGLQVPSAVRC [FSD1]	2.63 ± 0.6	2.56 ± 0.54
GLLLRGAVDGILHMFTPKLDKMLD [SLC6A17]	2.35 ± 0.47	2.43 ± 0.66
ELSNFKSQKVLGLNEDPLKWWSDR [ZBED1]	2.73 ± 0.17	2.97 ± 0.26
TKFQELQLAAGRHGDDLKNTKNEI [KRT71]	4.12 ± 0.39	4.28 ± 0.13
CYMATTKSQTACLPFVLAAAVSRK [EHMT1]	2.14 ± 0.3	2.15 ± 0.15
NDMSPSNNVVPIHVPPTTENKPKV [RAB11A]	5.42 ± 0.12	5.33 ± 0.19
PVVKLLHNRSNNKYSYTSTSDDNL [KCTD13]	3.82 ± 0.16	3.94 ± 0.19
NLPCNKFKNRLVNIMPYESTRVCL [PTPRD]	2.15 ± 0.23	2.65 ± 0.96
LKNTPRFKRRRVRRRRMETIVFLD [PCMTD2]	2.9 ± 0.19	3.33 ± 0.3
DGLPDLGHAQDLMDGLPPGDSNQL [CTNNB1]	5.33 ± 0.26	5.4 ± 0.19
CPTPARLATTEKKTEQQRRREKAV [NOP53]	5.19 ± 0.27	5.28 ± 0.24
DGVEVDDSYCDALTRPEPVHEFCA [ADAMTSL2]	4.57 ± 0.23	4.86 ± 0.24
QPCFFQDISMEIPQEFQKTVSTMY [SCAMP3]	2.55 ± 0.4	2.64 ± 0.23
DKGGRVVIFQREQESKNQVHRRGE [PPP2R2B]	4.59 ± 0.32	4.95 ± 0.29
ENLEGVPSVCSENIHPQVLLPDQA [ZNF263]	5 ± 0.39	4.96 ± 0.11
VPSESEPPALQNNLLSPLLTGTES [NFE2L1]	4.92 ± 0.1	5.07 ± 0.18
GSLKSVEVREPALRPAKRELRGAE [SPSB4]	4.98 ± 0.37	5.03 ± 0.14
SLSDLEIQASAGVISKKAKVKVPQ [ZNF75A]	4.44 ± 0.21	4.55 ± 0.14

Sequence	protein stability index (treatment: DMSO)	protein stability index (treatment: MLN4924 1 uM, 8 h)
FVIKMPVMYRIGCLRDDVVFFIYL [CLPTM1]	3.05 ± 0.39	3.06 ± 0.25
HNAVTSHQRPGWPGQPHSPFPHPT [NCF4]	3.11 ± 0.17	3.67 ± 0.21
RPNRQLGSMVEIAKQLQAVKRKIR [TRIM39]	2.85 ± 0.43	3.03 ± 0.27
SQGQWGRAWEVDWFSLASVIFLLL [DHCR7]	2.68 ± 0.033	2.39 ± 0.48
VPLCSCRMETPKSREITTLANNQC [EHMT1]	2.62 ± 0.17	2.81 ± 0.24
FPTVVWTWWIMFLSTFSVPYFLFQ [SOAT1]	3.1 ± 0.56	2.99 ± 0.45
SLNLSTEFISSTKRPYAKELETVD [SERPINB5]	3.69 ± 0.14	3.82 ± 0.21
FRVGKKIGCGNFGELRLGKNLYTN [CSNK1G3]	2.06 ± 0.19	2.28 ± 0.087
QFRMAQEEARRNRLMRDMAQLRLQ [SMG5]	2.95 ± 0.21	3.25 ± 0.26
NPKWTKWLQKLCCPCCFGRDCLVL [PI4K2A]	2.79 ± 0.3	2.72 ± 0.15
EIVVTISWAKSIPGFSSLSLSDQM [ESRRA]	3.19 ± 0.5	2.59 ± 0.22
QLSMLPHLADLVSYSIQKVIGFAK [VDR]	2.28 ± 0.2	2.48 ± 0.5
KLKNDTENHQPVSLSDLEIQASAG [ZNF75A]	5.21 ± 0.32	5.15 ± 0.14
HQLGFIHRDIKPDNLLLDAKGHVK [STK38L]	3.71 ± 0.31	4.12 ± 0.26
LRHSNPRADPLVCATGLLGSAPFL [SPNS1]	2.28 ± 0.31	2.75 ± 0.39
NPFQDPAVIQHRPSRQYATLDVYN [SCAMP3]	3.6 ± 0.28	3.62 ± 0.19
NLIYRDVKPENFLIGRPGNKTQQV [CSNK1G3]	3.27 ± 0.1	3.25 ± 0.22
ALGPLRTPAPPLWIGLFLVATGSQ	2.64 ± 0.57	2.27 ± 0.14
EVPEMSPVTCCDVSSNNRLVVTGS [TLE6]	4.35 ± 0.31	4.57 ± 0.1
PDPDAWLRALGELLRRDLGVGTSM [FANCE]	1.86 ± 0.28	1.9 ± 0.2
PSSYNCSQSILPLEHGSIYIPSSY [ESR2]	2.17 ± 0.2	2.26 ± 0.26
EARARARANRGILQQERQRLGQRQ [DNAJC4]	4.74 ± 0.28	4.65 ± 0.14
CSSCQRSWASAQVQILCHTYWEHW [RTP4]	2.3 ± 0.52	2.36 ± 0.28

Sequence	protein stability index (treatment: DMSO)	protein stability index (treatment: MLN4924 1 uM, 8 h)
RFCLVPSMEGVRWAFSCGTWLPSR [AASDHPPT]	2.48 ± 0.79	2.32 ± 0.056
YSEYPECCVDVKPISQEKIESERA [DUSP5]	4.57 ± 0.39	4.69 ± 0.66
LEWNSLGTWDDAFATFCGGLAANG [LRRC45]	2.52 ± 0.3	2.58 ± 0.31
GIESMDQCRHTLEQHNWNIEAAVQ [FAF2]	3.78 ± 0.2	4.08 ± 0.19
STNGELNVDDPTGAHSNAPITAHA [CSNK1G1]	5.39 ± 0.15	5.29 ± 0.33
QCSNRIGSMKIKSSWDIDGRATKR [FBXO34]	3.28 ± 0.2	3.52 ± 0.28
PTLSCEKYLTYDQLRKQKKKTGKS [ELOA2]	3.98 ± 0.19	4.57 ± 0.24
ARFITDFLDNGYGHCLLDKPEAPL [ADAMTS4]	2.19 ± 0.2	2.01 ± 0.22
LNDQNLCIPASSSFVYGAVPIGAS [GAN]	3.07 ± 0.16	3.13 ± 0.17
PGAEEAQDPEGKGEQEHSQQKEEE [CHGA]	5.65 ± 0.15	5.58 ± 0.43
AGTKVFEVPEMSPVTCCDVSSNNR [TLE6]	4.13 ± 0.26	4.17 ± 0.33
EDIDTSMYDNELWAPASEGLKPGP [SERTAD1]	4.84 ± 0.19	4.76 ± 0.17
RPTYTPPSIMPQKHWVYVKRGGNC [ZBTB22]	2.78 ± 0.25	3.06 ± 0.32
GTPTSHVYMFKNGSGDSGDSSEEE [LYSMD4]	5.37 ± 0.4	5.39 ± 0.28
PGQEAQRVVCGIDSSMILTVPGQA [NEK8]	3.78 ± 0.23	3.81 ± 0.22
SNMCINNTLVCNGLQNCVYPWDEN [NETO1]	3.29 ± 0.082	3.36 ± 0.44
NVLKIAPESAIKFMAYEQIKRLVG [SLC25A25]	3.07 ± 0.54	3.04 ± 0.67
EQTCDPDSSLHWSSSYSPETFRQQ [ZNF396]	4.43 ± 0.12	4.58 ± 0.12
SESMENINSGYETRRKKGKKDKDI [KMT2E]	5.01 ± 0.33	5.39 ± 0.42
SLAYCLACGGGHLLPYFYIIYMAI [DHCR7]	2.6 ± 0.64	2.45 ± 0.31
ASVLLQAVLYPRFMGTISDVKTNV [CD207]	2.76 ± 0.38	2.69 ± 0.41
REFDVRQTPQVNINPFTPDSLLLH [WEE1]	3.41 ± 0.47	3.52 ± 0.15
WYSPYAKTLQPTKQPNCSSLFKLK [PLD5]	2.32 ± 0.21	2.79 ± 0.21

Sequence	protein stability index (treatment: DMSO)	protein stability index (treatment: MLN4924 1 uM, 8 h)
KDHECSECGKTFIYNSHLVVHQRV [ZNF232]	2.56 ± 0.32	2.88 ± 0.41
SISELKHALSGHAKVKPFDPKITC [TPH1]	2.77 ± 0.45	2.93 ± 0.37
RSLENYHFVDEHGKDQGINIRQKV [CLINT1]	3.77 ± 0.23	3.75 ± 0.4
PDEMRMQALLIRERILGPSHPDTS [FEM1A]	3.29 ± 0.26	3.56 ± 0.19
HLSRLCVRHNLGDTRLGQVSALPL [SPSB2]	2.38 ± 0.14	2.54 ± 0.33
LQAESPPVDPDSQADTVHSNPELD [DNAAF3]	5.7 ± 0.17	5.63 ± 0.27
FKPACMSEIKNLERYMCSRFFIDF [TENT5D]	2.55 ± 0.61	2.42 ± 0.58
AQTFIALCATDFKFAMYPPSMIAT [CCND2]	2.75 ± 0.71	3.04 ± 0.62
EQYERNKSSSSSSSSSSSSSSSSS [TMEM40]	5.46 ± 0.32	5.49 ± 0.27
DMLIREVVEKRLCMYEHGEDTHQS [RSPH3]	3.7 ± 0.26	3.85 ± 0.28
PFTRRYYKEKFGITDLPRIDVSKR [EFHC1]	3.01 ± 0.36	3.3 ± 0.095
QEDAPMIEPLVPEEKMETKTESSG [EPB41L3]	5.69 ± 0.17	5.63 ± 0.13
EGYKDADYWLRRFEAEPLPENTNR [PI4K2A]	4.52 ± 0.13	4.41 ± 0.16
RCEELEDARYKLHHHLHKTLREIT [TEKT4]	2.81 ± 0.29	2.8 ± 0.25
LLYDRGTKFGLFTPGSRIESILMS [CPOX]	2.45 ± 0.46	2.14 ± 0.42
NGRGELVESLKRFCASTRLPPTPL [AUP1]	3.18 ± 0.38	2.94 ± 0.5
THRDRPSQQQPLRNQVVSSTNGEL [CSNK1G1]	4.93 ± 0.33	4.71 ± 0.36
RPELGAALGIYGAPYAAAAAAQSY [IRX6]	2.73 ± 0.12	2.92 ± 0.46
LPFRDASFGNCTYNLTILDCLQGI [CDC14A]	2.44 ± 0.59	2.71 ± 0.49
KAGLENSLAETECRYATQLQQIQG [KRT15]	3.92 ± 0.049	4 ± 0.3
